Reference: the domain aggregation screens of Martell et al. (2025)

Assay: soluble fraction after stress (log2 fold change); higher = more stays soluble; pooled small domains, quantitative proteomics
Details: stress: pH 4
Summary of the method: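 Values are on a log2 scale, where higher means more of the domain stayed soluble after pH 4 stress. They are fold changes in the soluble amount of each domain from pooled custom libraries, measured by high-throughput quantitative proteomics. The fold change is taken to reflect aggregation propensity.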

For “HMRMSRSARLFDLLHILRSHRRAVSGQALAQQLGISIRTLYRDIASLQAQGAKIEGEPGVGYMLKP”, the “soluble fraction (log2)” value was -0.0136.
In the case of “HMSLHSITIPQEFIGAVIGPGGKVIQEIQKQTGTTITITEKDNKGYVDIFGEDKGALDSALARIKEIVAIP”, the “soluble fraction (log2)” value was -0.277.
With “HMSQDEKITNYIYEGNKNTQTEAFVEAEKSYRKALSLSPEKPEALYNLGNTHFLDKQYDEASQRFF” the “soluble fraction (log2)” value was -0.111.
With “HMKTRNISGNHEAVWQAVRSRTQAGHPTTRAVIMDDLKAQGLNTQKFSRWLKKLVDDGSVYMDGDTIIMGK” the “soluble fraction (log2)” value was -0.12.
For “HMSSNLSLHKEGNKIVILGLEGKSVIEVYDLMGRLLSSQTNYNPKQEITLLQPVIIRVTDTQQTKSFKV”, the “soluble fraction (log2)” value was -0.132.
For “HMATYNEVLKRLIEERKRLGLSQQEMARLVHITQSNYSKVEKGLHRLSYEELKYLSKANVDIFYILT”, the “soluble fraction (log2)” value was 0.0845.
With “HMATIADILAEHKDKEGPLLPVLHDVQKMFGHVSEEAMREIAQALNLTRAEVYGVVSFYHDFRKEVE” the “soluble fraction (log2)” value was -1.19.
With “HMRDADRYAFMQENVEDFAKDMRRKHMTYDVLYEEYIRRTDNPYGYTQFKAIVQEYEKNHDYK” the “soluble fraction (log2)” value was 0.253.
In the case of “HMRRTVIVTAAHAEIRERPDANAPLVFSAEQKVSLDYQETAPGGWVKVRHRDGQSGYVRTNQI”, the “soluble fraction (log2)” value was -0.159.
In the case of “HMKLVTIPNVIGKTKEDAMKTLKDLGVTVTVETKESEKDDGTVIAQSKAEGTKLTAGENVTITVSKKKK”, the “soluble fraction (log2)” value was -0.487.
With “HMLQGKVSFFNDEKGYGFIKDNNSKDSYFVHINKVEGEIAEGDKVTFELEKGPKGLVAANVKR” the “soluble fraction (log2)” value was -0.145.
For “HMHMKTIEWDSLVLIMYKDMKYLKRINEGQSFHGKGGMLNYADLIGKTYGIRFGQYEIFEPSLEDIVMYG”, the “soluble fraction (log2)” value was -0.569.
With “HMSSQGQNTKTGTVTASALYVRSGAGTNYSQIGYLLKNTKVEIVGQTGSWYKIKFGSGTGYVSSKYIK” the “soluble fraction (log2)” value was 0.0256.
For “HMFEPLTDREREVLQALADGLSDKEIAERLYISPATVRTHITAILGKLDANSRLQAVVVAARHNLVTL”, the “soluble fraction (log2)” value was -0.926.
For “HMSINQTIEGKKQGYWIIYGNMRNLQEYLSNEVIEEGQFKNSRKEGVWRKYFPGGQMKSEITYINGRP”, the “soluble fraction (log2)” value was -0.93.
In the case of “HMLIVLKPNVSQEEIDHIVDKIRSLSLEPHVSTGVQRTIITVIGDEDVIREQPLEALAGVESVKSILKP”, the “soluble fraction (log2)” value was -0.144.
With “HMERAFRILELFDLKQDELPITEIAERTGLPISTAHRLLSTLETLGYIAQNPDNGRYRLGLQTFVLGSR” the “soluble fraction (log2)” value was -1.3.
For “HMVLVLPGEMIHVQVIDEGKEMGQGVGYLDDGTMVVVENGLRHIGRAIDVQVTKVLQTNAGRMIFGQPIL”, the “soluble fraction (log2)” value was -0.952.
With “HMQDEREEIAVEDVVGMPLWQARKVIADQGFRVLDDGAGDIVIAQMPSGGGKLIEGGQVMLYTYTD” the “soluble fraction (log2)” value was -0.201.
For “HMPEMAIRTLRLRNQRGAAVAAEWSRITASLLELRQVEFVNPVDQLIVLKGPEPWAGVAEELVRQLDV”, the “soluble fraction (log2)” value was -1.02.
For “HMRNSVQREWIYDYIQRQDAHLSADEIYEGLLKEGKNISLATVYRNLSILVDEYKIASVMTDSKKQVYDK”, the “soluble fraction (log2)” value was -0.327.
With “HMVIANADVRAKFSKGKDSFVKYYFKEKVLKDGFTEEVKNNIVQALFYLQIVTRIDGESGVLIIDY” the “soluble fraction (log2)” value was 0.187.
In the case of “HMESDAIAAAIAALPARYREVLLLRYDNGFSYSEISKALDMTEAAVRKTVQRAKEALQRTLQIQEEDT”, the “soluble fraction (log2)” value was -0.219.
For “HMNAQLTTQEAADLLNVSRPHLVKLLEDGELPFLRTGKHRRVRLADLLQFKNAREQASVQAMDELSRQAQ”, the “soluble fraction (log2)” value was -0.177.
In the case of “HMQQTAEDWKNKGDSLTAQSEYVEAIAAYDEAIRLDPNYAPAWSNKGNALKNLGEYYKAIQAYDEAIRL”, the “soluble fraction (log2)” value was -1.
In the case of “HMRPFAMNLLEKHKADIEVWLKHPNMTNTQIKRLLEELGTSVSVSSIDRFISTSFPKLPKHT”, the “soluble fraction (log2)” value was -0.207.
For “HMNKPTSMYKLRLLLKHYHAGASKRWMADVLDISRSTLNVYLARIESLNLAFEEWEALSDLEVSRLLINP”, the “soluble fraction (log2)” value was -0.852.
In the case of “HMDTPMYMAIIEEVRFQIANEILKEGEQLPSIRNLAKTLKVSVITVKRAYKELEEAGYITTIPAKGSKVS”, the “soluble fraction (log2)” value was -0.167.
With “HMNIDEIFLTKNEIYFSFEYQKKSQLDRYSKIISLDHRIDKNTAYAYANKKQFLNFINLNIDYKIIDNSF” the “soluble fraction (log2)” value was -1.
In the case of “HMNAESLIGDRAVVTVAIERNKRGRVDVTGQDWAATTRDGEEIKVGQEVLVVGISGVALIVEER”, the “soluble fraction (log2)” value was 0.164.
With “HMNSLTVPDITNRTLAEASQVLLDMGLTPIPDAVAKDGVGDDVVYAQSPPPNVGAREGDVVTITYNPA” the “soluble fraction (log2)” value was 0.093.
In the case of “HMLAKRYLVYGSGSLNSAYPDTKNIAYGIDSGKGFFLVGILTENEASKLKLKGYYVIEDFPLDFH”, the “soluble fraction (log2)” value was -0.921.
In the case of “HMERAPAYPDGLTQREVEVLRLIASGKTDREIAEELFIGVRTVSTHVGNILNKTNSANRTEAASYANQQGL”, the “soluble fraction (log2)” value was -1.53.
With “HMEHETTQLELNAPGQRLDAALALALPDTSRAQIQQWIKQGLVTDQAGTALLQASLKLKSPLNVVLQRPI” the “soluble fraction (log2)” value was 0.0662.
With “HMRSGEDESFSAGLLEYPHYTRPAEFEGHRIPDILTSGDHAKVDAWRQEMSEHITRERRPDLWEMYKKK” the “soluble fraction (log2)” value was 0.0228.
With “HMEDDRLIQNLLLTAKNLVMDVGRMDESALAENEDTVRTAMLFALGYLYENRSNPDYHKLTLNLRSILFA” the “soluble fraction (log2)” value was -0.807.
With “HMIVVTSPQVTDERIAEIVAFIEKHGVQAHVSRGTDRTVIGIIGKADPVLAEHLRSMQGVENVIKIS” the “soluble fraction (log2)” value was -0.126.
In the case of “HMSRGAIVTGTVIEKNQSGIYVDLGYKSDGIVPIEEFDGEESKYNVGDQIRVYVKKVDDGHGQLML”, the “soluble fraction (log2)” value was -0.135.
With “HMSKQKRIKYFLSILNIKSIKQFRKKDLDYFYQKRFIEIQKSSKDKKLVSNQLIELNAAKEYLDEIDFEN” the “soluble fraction (log2)” value was 0.295.
With “HMSQIANLLLSKNIKVNNQNIIYYETVLKYLPNNEKKEFFINAMKNNIYFTEEEIKNFGNIFN” the “soluble fraction (log2)” value was -0.786.
In the case of “HMTPTVEAAKEEVLRVLASAAPRGLTRTELEAEVSFRRTKLRDTLVELERIGRIDSVGRRGNATTYRLIG”, the “soluble fraction (log2)” value was -0.0736.
With “HMQVEYTRGELLQDLKEENVLYATITPSRETPTGEVDFVFKDKSIKTLYVTDVSEIEGLLMDYGIDPEVKK” the “soluble fraction (log2)” value was -0.367.
In the case of “HMGTLSLLVQKLMAVGLEGAKASEIVERFDRERIERQINALPSRKIKSSRTGFLIRAIELDIPVE”, the “soluble fraction (log2)” value was -1.31.
For “HMEAEGLDFAPMPGEIGKKLWQEVSKEAWAGWLKHQTMLVNENRLSFVDPAARKYLTEQTEAYFFG”, the “soluble fraction (log2)” value was -0.248.
For “HMSMFTPAQVAQTLTVPPSTLRRWAKRFAPFLSPQSGKKRTYTVADLDTFQRIKELSAQGYTFAQIDQAL”, the “soluble fraction (log2)” value was -0.101.
With “HMIDQSVVVQYLSKLTNTPYLKTREITMGEPYMQFERGEIKFQEYVEDIRALLPGGDRIDADRLRDIWMNS” the “soluble fraction (log2)” value was -0.721.
For “HMQQGVEQLPVTEVGGRLMHYYEVQPKETLYSLSHKLGVGQEYIEQHNPSVRGGLRAFMTLYFPAA”, the “soluble fraction (log2)” value was -0.12.
With “HMSATIMVLRASEDIPVGTEIKDNHLTTVEVGSYGLPEGAINDKDTVLGKVAQTNIIKGDYFFPQKLGG” the “soluble fraction (log2)” value was -1.18.
For “HMQDREIHIHAGREVLEKELSRLSLHLKNTNLQEYAARFNVKTAEDILAGIGAGDIRPAHVVNLIADKL”, the “soluble fraction (log2)” value was -0.222.
In the case of “HMVDKDFKPLYASLERLDSTSIIEILDSNRIDYRIDQRSGALLVDADQIHQARLSLASAGMPA”, the “soluble fraction (log2)” value was -0.844.
With “HMDTLRPLGRYQNVHLTKQELTALQSEFSDWSERIERLSSYMASTGRKYQNHAATIRLWAEKDK” the “soluble fraction (log2)” value was 0.161.
In the case of “HMSKQQVRSILDDIPNIGETRRKALMRQFQSLEKIREASVGQLREVDGMNEKAAQSVYQFFHK”, the “soluble fraction (log2)” value was 0.108.
For “HMEAVIENAAIIKQNSGGYAVRATVNGVDLGMKPVERATALLYFSLTDKLEKDRLLSHTLQKTYGDLSA”, the “soluble fraction (log2)” value was -0.213.
In the case of “HMHPNPLTEQEIAVLKGIAQGLSNQEIADQLYLSNGTVRNYVTNILSKLDAGNRTEAANIAKESGW”, the “soluble fraction (log2)” value was -0.279.
With “HMADGDIIPEGQRDATLASLAGSMRARGMTEAEILAALQVTNETRVRPPMALADLERIARSIGRYEPGK” the “soluble fraction (log2)” value was 0.0649.
For “HMSVLLDDLSPREREILQLVVEGHSSTKIAGMLGLASATVDTYRSRLMAKLHIDNLPDLVRFAIRHGLIS”, the “soluble fraction (log2)” value was -0.122.
In the case of “HMGYPGLGSIGSKPLGDLLFQSKLFVKTKREFAEFKMANNNIVWGRRTQYLVRNYPLSVMEVFL”, the “soluble fraction (log2)” value was -0.348.
For “HMIFEEDILKEFRGSLIFITHDRRFLDNIATRIIELDRGKLLSFPGNFSAYKKAKNEQLANEAVENA”, the “soluble fraction (log2)” value was -1.17.
For “HMEITTLTGVLGAGRLDSALAAALPQYSRARIQALISDAALRINGQVVADAGSKKMSGQTFELNIPAPVP”, the “soluble fraction (log2)” value was 0.0449.
In the case of “HMDPIATLTPREREVLSLMAEGRSNGAIAAALVVGDGAVEKHVSNIFQKLELTPAEGDHRRVLAVLRWLE”, the “soluble fraction (log2)” value was -0.864.
With “HMRTYYEILGVSKNASLHEIQKAYRELALKYHPKNNSDPTAEEKFTQINEAYTHLSDAARRRSYDDL” the “soluble fraction (log2)” value was 0.362.
For “HMVSDAELTSQATTAITAYPGTSVEVKEGQAHLSGTFATEADKQAAIDALKKIQDVKDVHDMATV”, the “soluble fraction (log2)” value was 0.0294.
In the case of “HMADASVTAYFKIAEDRLQGRLPDTFSEASLKARYQLTPAQLTAVLTRIAQEGWAERKPGYGWAFSSML”, the “soluble fraction (log2)” value was -1.
For “HMSTVISPLPGNIIKVLVPEGKSVKRGDTILTIESMKMENSIKAAYDGVVKKIYVQQAQIVMQGDPLFDL”, the “soluble fraction (log2)” value was -1.05.
For “HMIDRADLWEALRKLPEDTLKLFSLHFEKGMTHDEISKHTDIPVGTVKTKLRRGLIEARKLAREF”, the “soluble fraction (log2)” value was -0.394.
In the case of “HMSTPLVATLRKRIIDGHYPPGERLAEIPVAEAFGVSRTPVRLAFRTLEQEGLLEKAGKRGYAVRA”, the “soluble fraction (log2)” value was 0.0231.
With “HMWMTAQDFRNSSLPWSATTSYNEGQSVRVVDGSNTYYYIAIVKTQPGQSPTTHPTSWREVDA” the “soluble fraction (log2)” value was 0.311.
For “HMQQLDDDTVAYVADNGIAVKSKNGKELSVDTSGLSYDIIMDMFRNLPRNGDFFSSKYWSDNIQKAQAR”, the “soluble fraction (log2)” value was -1.34.
With “HMDFIEYIISEESKGLRADQAISMENDKFSRSLIQKWIKKGRVLVNGRKIKPKDIVNLNDKITINPEESIN” the “soluble fraction (log2)” value was -0.597.
With “HMRPSGEAVNAAYRLLKGANPSGNEGDLIQRAQEVAAILPKLNRSSAAAFAKDAKANGLTQAETIALWKGS” the “soluble fraction (log2)” value was 0.163.
For “HMNRTKQIYNELLFRLDQGVYPPESKFPSESQLADEFSVSKVTMNKIVSMLASSGRLSRGVRGAGTFVSSP”, the “soluble fraction (log2)” value was 0.319.
In the case of “HMNHSITLTERKNLLITGVKKIENFDKEEFLIETTMGFLVVKGDGLELIKLDTISGNVSIKGIVNGFTYID”, the “soluble fraction (log2)” value was 0.0772.
With “HMIQLTDAEFNELVTYIKKNYGINLIKKRLLIEARMYSVLAKHGFTSFTEYINLIKRDPAELNTMLNKLTT” the “soluble fraction (log2)” value was 0.126.
With “HMEKKPYGEMHNVMLTDEELEKLRHDYPAHFAEYIQRLSLHIDAKGARYKSHYAVIRKWLIADGVKA” the “soluble fraction (log2)” value was 0.0221.
In the case of “HMAEEFESMTEARRLELARLVDSRGFVRVTDAAEELGVSDVTIRGDLSELERRGLLTRVHGGAMPVT”, the “soluble fraction (log2)” value was -0.366.
